Laboratory results taken from paper PMC3220268.

Key:
[1] = biological target: gelsolin-capped actin filaments (UniProt P68135); experiment: pointed end capping assay (elongation from gelsolin-capped actin filaments); gelsolin-capped actin filaments (100 nM), 4 µM actin with pyrene-labeled actin; slowing of pointed end elongation by rArp2/3 complex
actin filaments = actin filaments (UniProt P68135); experiment: co-sedimentation; actin co-sedimentation (pelleting) of rArp2/3 complex with actin filaments, as described in ref. 46

fold decrease in affinity against WT [1] [fold]	Kd (actin filaments) [nM]	Substance
8	–	recombinant Arp2/3 complex with Arp2 T237A, T238A, and Y202A mutations (from UniProt P61158 1-418; P61160 1-394; O15143 1-372; O15144 1-300; O15145 1-178; P59998 1-168; O15511 1-151)
–	1500	recombinant Arp2/3 complex with ARPC4 R105A and R106A mutations (from UniProt P61158 1-418; P61160 1-394; O15143 1-372; O15144 1-300; O15145 1-178; P59998 1-168; O15511 1-151)
